In this data set the target is T1, His-RAX WT (PACT) (Mus musculus (cDNA from L929 cells), UniProt Q9WTX2 1-313).
T1 sequence: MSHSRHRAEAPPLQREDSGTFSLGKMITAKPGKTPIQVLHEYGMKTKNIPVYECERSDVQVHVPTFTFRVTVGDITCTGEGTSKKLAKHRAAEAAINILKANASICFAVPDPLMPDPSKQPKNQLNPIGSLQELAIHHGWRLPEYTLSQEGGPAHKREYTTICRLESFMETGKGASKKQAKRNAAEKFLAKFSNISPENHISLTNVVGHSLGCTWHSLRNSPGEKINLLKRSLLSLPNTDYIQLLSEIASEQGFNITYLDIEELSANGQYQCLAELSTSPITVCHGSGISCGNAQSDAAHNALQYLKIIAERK
As to the kind of experiment: EMSA; 1 uM His-RAX; 25 fmol probe; competed by poly(I:C); 20 mM Tris pH 7.5, 50 mM KCl, 2 mM MgCl2, 2 mM MnCl2, 5% glycerol; EMSA 15 min at room temperature, 5% acrylamide gel in 0.25x TBE run cold. To be noted: protein: recombinant; blunt. In general terms: A gel shift assay detects complexes by their altered migration in electrophoresis.

B1: 30-bp dsRNA probe (dsRNA)
RNA 1: GGGAACAAAAGCUGGGUACCGGGCCCCCCC
RNA 2: GGGGGGGCCCGGUACCCAGCUUUUGUUCCC
As for B1, the binding result is on record as “binds”.

Source of the values: paper PMC3237451, “Missense Mutation in the Second RNA Binding Domain Reveals a Role for Prkra (PACT/RAX) during Skull Development”.
